B1: Heterogeneous nuclear ribonucleoprotein A1 (Homo sapiens), P09651-2 (parent)
chain: MSKSESPKEPEQLRKLFIGGLSFETTDESLRSHFEQWGTLTDCVVMRDPNTKRSRGFGFVTYATVEEVDAAMNARPHKVDGRVVEPKRAVSREDSQRPGAHLTVKKIFVGGIKEDTEEHHLRDYFEQYGKIEVIEIMTDRGSGKKRGFAFVTFDDHDSVDKIVIQKYHTVNGHNCEVRKALSKQEMASASSSQRGRSGSGNFGGGRGGGFGGNDNFGRGGNFSGRGGFGGSRGGGGYGGSGDGYNGFGNDGSNFGGGGSYNDFGNYNNQSSNFGPMKGGNFGGRSSGPYGGGGQYFAKPRNQGGYGGSSSSSSYGSGRRF

The experiment covers variants of B1. To be noted: with ubql2_human UBQLN2, Q9UHD9.
Chain of ubql2_human UBQLN2, Q9UHD9 (Q9UHD9 whole entry): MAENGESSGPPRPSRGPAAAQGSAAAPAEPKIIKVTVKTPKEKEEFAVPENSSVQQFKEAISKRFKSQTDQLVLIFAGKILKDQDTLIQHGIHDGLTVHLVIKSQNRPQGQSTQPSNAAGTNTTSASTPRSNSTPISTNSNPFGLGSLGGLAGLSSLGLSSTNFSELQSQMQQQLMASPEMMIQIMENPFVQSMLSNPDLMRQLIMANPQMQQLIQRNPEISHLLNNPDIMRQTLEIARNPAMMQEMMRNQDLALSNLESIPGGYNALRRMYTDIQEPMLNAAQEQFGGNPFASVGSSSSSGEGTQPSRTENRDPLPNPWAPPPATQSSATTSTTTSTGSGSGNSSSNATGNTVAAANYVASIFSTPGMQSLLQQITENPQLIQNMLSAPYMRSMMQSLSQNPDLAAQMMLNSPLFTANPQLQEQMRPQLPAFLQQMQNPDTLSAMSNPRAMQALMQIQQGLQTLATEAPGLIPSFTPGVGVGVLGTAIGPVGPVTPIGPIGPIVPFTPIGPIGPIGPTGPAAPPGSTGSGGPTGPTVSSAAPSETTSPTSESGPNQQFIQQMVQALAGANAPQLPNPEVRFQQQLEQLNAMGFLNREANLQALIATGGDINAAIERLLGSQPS
Regarding D262V, the “effect of a mutation on the interaction” value is “decreasing interaction”.

Values taken from IntAct's records for PubMed 25616961.
